6 sequences from the supplement of paper PMC11316812 can be followed below.

± gives the standard deviation of the averaged measurements.

For data set [1], the system named is MCF7. Put plainly: percentage of EdU-negative (G0-arrested) nuclei per well, 72 h; higher = more G0 arrest. Particulars: reference: sequence is the full UniProt precursor, the tested protein was the secreted form or ectodomain.
Data set [2] concerns hTERT-HMEC. Described as above. Particulars: reference: sequence is the full UniProt precursor, the tested protein was the secreted form or ectodomain.
[3] abbreviates: protein concentration 0.03125 µM.
Setting [4] is: protein concentration 0.3125 µM.
The mark [5] stands for this setting: protein concentration 0.00775 µM.
[6] abbreviates: protein concentration 0.0775 µM.
[7] abbreviates: protein concentration 0.0225 µM.
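Also: secreted proteins added to cultured cells, EdU pulse at the end, nuclei found by Hoechst imaging, EdU status from nuclear versus surrounding ring intensity ratio, PBS as neutral control.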

“MPLLWLRGFLLASCWIIVRSSPTPGSEGHSAAPDCPSCALAALPKDVPNSQPEMVEAVKKHILNMLHLKKRPDVTQPVPKAALLNAIRKLHVGKVGENGYVEIEDDIGRRAEMNELMEQTSEIITFAESGTARKTLHFEISKEGSDLSVVERAEVWLFLKVPKANRTRTKVTIRLFQQQKHPQGSLDTGEEAEEVGLKGERSELLLSEKVVDARKSTWHVFPVSSSIQRLLDQGKSSLDVRIACEQCQESGASLVLLGKKKKKEEEGEGKKKGGGEGGAGADEEKEQSHRPFLMLQARQSEDHPHRRRRRGLECDGKVNICCKKQFFVSFKDIGWNDWIIAPSGYHANYCEGECPSHIAGTSGSSLSFHSTVINHYRMRGHSPFANLKSCCVPTKLRPMSMLYYDDGQNIIKKDIQNMIVEECGCS”: the “percentage of EdU-negative” value in data set [1] (setting [3]) worked out at 26.6 ± 1.6%; in data set [1] (setting [4]), 27.8 ± 1.4%; in data set [2] (setting [3]), 5.64 ± 0.18%; in data set [2] (setting [4]), 5.29 ± 1.4%.

In the case of “MPLRDETLREVWASDSGHEEESLSPEAPRRPKQRPAPAQRLRKKRTEAPESPCPTGSKPRKPGAGRTGRPREEPSPDPAQARAPQTVYARFLRDPEAKKRDPRETFLVARAPDAEDEEEEEEEDEEDEEEEAEEKKEKILLPPKKPLREKSSADLKERRAKAQGPRGDLGSPDPPPKPLRVRNKEAPAGEGTKMRKTKKKGSGEADKDPSGSPASARKSPAAMFLVGEGSPDKKALKKKGTPKGARKEEEEEEEAATVIKKSNQKGKAKGKGKKKAKEERAPSPPVEVDEPREFVLRPAPQGRTVRCRLTRDKKGMDRGMYPSYFLHLDTEKKVFLLAGRKRKRSKTANYLISIDPTNLSRGGENFIGKLRSNLLGNRFTVFDNGQNPQRGYSTNVASLRQELAAVIYETNVLGFRGPRRMTVIIPGMSAENERVPIRPRNASDGLLVRWQNKTLESLIELHNKPPVWNDDSGSYTLNFQGRVTQASVKNFQIVHADDPDYIVLQFGRVAEDAFTLDYRYPLCALQAFAIALSSFDGKLACE”, the “percentage of EdU-negative” value in data set [1] (setting [5]) came to 25.1 ± 0.28%; in data set [1] (setting [6]), 25.5 ± 0.95%; in data set [2] (setting [5]), 5.21 ± 0.36%; in data set [2] (setting [6]), 6.67 ± 0.59%.

With “MPLSLGAEMWGPEAWLLLLLLLASFTGRCPAGELETSDVVTVVLGQDAKLPCFYRGDSGEQVGQVAWARVDAGEGAQELALLHSKYGLHVSPAYEGRVEQPPPPRNPLDGSVLLRNAVQADEGEYECRVSTFPAGSFQARLRLRVLVPPLPSLNPGPALEEGQGLTLAASCTAEGSPAPSVTWDTEVKGTTSSRSFKHSRSAAVTSEFHLVPSRSMNGQPLTCVVSHPGLLQDQRITHILHVSFLAEASVRGLEDQNLWHIGREGAMLKCLSEGQPPPSYNWTRLDGPLPSGVRVDGDTLGFPPLTTEHSGIYVCHVSNEFSSRDSQVTVDVLDPQEDSGKQVDLVSASVVVVGVIAALLFCLLVVVVVLMSRYHRRKAQQMTQKYEEELTLTRENSIRRLHSHHTDPRSQPEESVGLRAEGHPDSLKDNSSCSVMSEEPEGRSYSTLTTVREIETQTELLSPGSGRAEEEEDQDEGIKQAMNHFVQENGTLRAKPTGNGIYINGRGHLV [Q96NY8]”, the “percentage of EdU-negative” value in data set [1] (setting [7]) came out at 27.6 ± 2%; in data set [1] (protein concentration 0.225 µM), 27.8 ± 0.29%; in data set [2] (setting [7]), 4.77 ± 0.36%; in data set [2] (protein concentration 0.225 µM), 5.65 ± 0.22%.

“MPMASPQTLVLYLLVLAVTEAWGQEAVIPGCHLHPFNVTVRSDRQGTCQGSHVAQACVGHCESSAFPSRYSVLVASGYRHNITSVSQCCTISGLKKVKVQLQCVGSRREELEIFTARACQCDMCRLSRY [Q96T91]”: the “percentage of EdU-negative” value was 24.4 ± 0.81% in data set [1] (setting [7]), 22 ± 2.1% in data set [1] (protein concentration 0.225 µM), 6.3 ± 1.5% in data set [2] (setting [7]) and 4.45 ± 1.1% in data set [2] (protein concentration 0.225 µM).

Take “MPMFIVNTNVPRASVPDGFLSELTQQLAQATGKPPQYIAVHVVPDQLMAFGGSSEPCALCSLHSIGKIGGAQNRSYSKLLCGLLAERLRISPDRVYINYYDMNAANVGWNNSTFA”: the “percentage of EdU-negative” value in data set [1] (setting [7]) was 24.4 ± 1.2%; in data set [1] (protein concentration 0.225 µM), 26.3 ± 2%; in data set [2] (setting [7]), 4.84 ± 1.4%; in data set [2] (protein concentration 0.225 µM), 6.38 ± 1.7%.

As for “MPMGSLQPLATLYLLGMLVASCLGRLSWYDPDFQARLTRSNSKCQGQLEVYLKDGWHMVCSQSWGRSSKQWEDPSQASKVCQRLNCGVPLSLGPFLVTYTPQSSIICYGQLGSFSNCSHSRNDMCHSLGLTCLEPQKTTPPTTRPPPTTTPEPTAPPRLQLVAQSGGQHCAGVVEFYSGSLGGTISYEAQDKTQDLENFLCNNLQCGSFLKHLPETEAGRAQDPGEPREHQPLPIQWKIQNSSCTSLEHCFRKIKPQKSGRVLALLCSGFQPKVQSRLVGGSSICEGTVEVRQGAQWAALCDSSSARSSLRWEEVCREQQCGSVNSYRVLDAGDPTSRGLFCPHQKLSQCHELWERNSYCKKVFVTCQDPNPAGLAAGTVASIILALVLLVVLLVVCGPLAYKKLVKKFRQKKQRQWIGPTGMNQNMSFHRNHTATVRSHAENPTASHVDNEYSQPPRNSHLSAYPALEGALHRSSMQPDNSSDSDYDLHGAQRL”, the “percentage of EdU-negative” value in data set [1] (setting [7]) was found to be 24.9 ± 1.4%; in data set [1] (protein concentration 0.225 µM), 26 ± 3.2%; in data set [2] (setting [7]), 5.29 ± 0.99%; in data set [2] (protein concentration 0.225 µM) it was 5.13 ± 0.33%.
